Experimental data from patent US20210147526A1 (PLIANT THERAPEUTICS, published 2021).
One block for each binder: values may come before it.

Assays:
[1] = target: cell surface integrin α7β1 (cells and species not stated); assay: cell-based or functional assay
Human Integrin α7β1 [2] = target: T1, Human Integrin α7β1 (human, UniProt Q13683 34-1038; P05556 21-728, limits assumed); assay: comparison of the KD values of Table 8
T1 construct: also called human α7β1 integrin

Mouse Integrin α7β1 [3] = target: T2, Mouse Integrin α7β1 (mouse, UniProt Q61738 34-1032; P09055 21-728, limits assumed); assay: comparison of the KD values of Table 8
T2 construct: also called murine α7β1 integrin
T2 sequence (Q61738 other isoform, or with tags, fused parts or gaps limits assumed, chain 1 of 2): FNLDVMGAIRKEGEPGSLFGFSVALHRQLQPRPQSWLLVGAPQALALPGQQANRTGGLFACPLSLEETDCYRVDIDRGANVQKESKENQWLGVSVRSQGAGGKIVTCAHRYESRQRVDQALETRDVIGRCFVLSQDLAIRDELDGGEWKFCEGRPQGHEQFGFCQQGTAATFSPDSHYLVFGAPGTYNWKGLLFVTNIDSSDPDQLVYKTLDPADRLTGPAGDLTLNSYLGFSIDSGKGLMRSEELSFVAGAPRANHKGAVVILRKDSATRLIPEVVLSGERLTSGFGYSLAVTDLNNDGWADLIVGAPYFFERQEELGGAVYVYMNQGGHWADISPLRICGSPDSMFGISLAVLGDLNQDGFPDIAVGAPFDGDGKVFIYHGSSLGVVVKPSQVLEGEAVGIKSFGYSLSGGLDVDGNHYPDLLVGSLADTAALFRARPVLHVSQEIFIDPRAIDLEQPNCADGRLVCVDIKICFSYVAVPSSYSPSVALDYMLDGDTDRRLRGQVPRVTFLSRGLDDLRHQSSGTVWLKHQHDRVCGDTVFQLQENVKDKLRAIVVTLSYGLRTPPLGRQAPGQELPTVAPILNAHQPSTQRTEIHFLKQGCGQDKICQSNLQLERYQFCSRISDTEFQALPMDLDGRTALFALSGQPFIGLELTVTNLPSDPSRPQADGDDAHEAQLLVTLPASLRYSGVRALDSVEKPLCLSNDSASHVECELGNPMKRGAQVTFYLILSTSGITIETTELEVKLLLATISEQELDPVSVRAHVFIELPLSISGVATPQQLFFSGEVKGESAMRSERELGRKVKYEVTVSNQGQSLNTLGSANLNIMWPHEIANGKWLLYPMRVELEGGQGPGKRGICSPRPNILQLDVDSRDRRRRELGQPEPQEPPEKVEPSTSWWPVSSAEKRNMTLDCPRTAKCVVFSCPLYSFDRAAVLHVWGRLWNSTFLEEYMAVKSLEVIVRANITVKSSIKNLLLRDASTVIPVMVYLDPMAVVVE
T2 sequence (P09055 21-728 limits assumed, chain 2 of 2): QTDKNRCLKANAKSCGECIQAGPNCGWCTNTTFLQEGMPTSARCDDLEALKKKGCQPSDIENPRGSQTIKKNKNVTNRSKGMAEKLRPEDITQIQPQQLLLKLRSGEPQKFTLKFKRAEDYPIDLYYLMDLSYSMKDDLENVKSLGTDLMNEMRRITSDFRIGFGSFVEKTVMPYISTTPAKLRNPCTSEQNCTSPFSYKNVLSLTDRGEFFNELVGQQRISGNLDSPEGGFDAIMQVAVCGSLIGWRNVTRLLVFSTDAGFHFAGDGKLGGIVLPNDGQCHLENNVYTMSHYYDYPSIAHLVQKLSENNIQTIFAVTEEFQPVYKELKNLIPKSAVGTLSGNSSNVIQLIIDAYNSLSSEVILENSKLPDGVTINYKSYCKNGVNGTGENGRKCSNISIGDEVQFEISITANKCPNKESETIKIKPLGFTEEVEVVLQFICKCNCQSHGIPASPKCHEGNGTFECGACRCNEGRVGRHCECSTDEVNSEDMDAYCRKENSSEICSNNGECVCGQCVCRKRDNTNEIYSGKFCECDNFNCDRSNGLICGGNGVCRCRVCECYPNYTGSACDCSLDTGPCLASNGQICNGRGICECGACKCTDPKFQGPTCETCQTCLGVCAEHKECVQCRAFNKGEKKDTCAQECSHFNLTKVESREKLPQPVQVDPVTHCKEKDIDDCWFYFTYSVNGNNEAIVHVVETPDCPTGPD

[4] = target: T3, human integrin alpha-7 (ITGA7) co-transfected with integrin beta-1 precursor (ITGB1) on HEK-293T cells, wild … (human, UniProt P05556 21-798, limits assumed); assay: high-throughput flow cytometry on HEK-293T cells with ITGA7 + ITGB1 against vector alone, 0.5 µg/ml
T3 construct: whole, on cells; also called target protein; wild-type (WT) target protein
From the text: (§1) Conditions for binding and screening of monoclonal antibodies and Fabs using high-throughput flow cytometry were optimized using wild-type target protein cloned into a proprietary vector and expressed in HEK-293T cells. The target protein is human integrin alpha-7 (ITGA7; UniProt ID Q13683; SEQ ID NO: 24). The binding of the VL3VHK20TFT monoclonal antibody and the VL3VHK20TFT Fab to HEK-293T cells co-transfected (1:1) with integrin beta-1 precursor (ITGB1) and integrin subunit alpha 7 (ITGA7) or with vector alone (negative control) was evaluated by high-throughput flow cytometry. The antibodies 3C12, 6A11, A1-1a M20, and A1-1a M24 were used as positive controls for ITGA7 binding.
(§2) Each point in FIG. 15 and FIG. 16 represents the mean of four replicates. The optimal screening concentration for each antibody or Fab (outlined in a box) was determined based on the raw signal values and signal-to-background calculations.

Human Integrin α7β1 [5] = target: T1, Human Integrin α7β1; assay: kinetics with RU read-out, integrin captured at 0.25 µg/mL, antibody as analyte, 1:1 binding model
Mouse Integrin α7β1 [6] = target: T2, Mouse Integrin α7β1; assay: as above
[7] = target: T4, ITGA7 mutant R958A on HEK-293T cells (human, UniProt P05556 21-798); assay: high-throughput flow cytometry on HEK-293T cells with the ITGA7 alanine mutant, high stringency, normalized to wild type
T4 construct: whole, on cells; Clone of the alanine-scan library of ITGA7
Protocol: (§3) In order to map the epitope of VL3VHK20TFT, an alanine-scan library of the target protein (ITGA7; SEQ ID NO: 24) was constructed. Shotgun mutagenesis epitope mapping was performed using the general procedure described in Davidson and Doranz, 2014, Immunology 143, 13-20. Briefly, a mutation library of the target protein was created by high-throughput, site-directed mutagenesis. Each residue was individually mutated to alanine, with alanine codons mutated to serine. The mutant library was arrayed in 384-well microplates and transiently transfected into HEK-293T cells. Following transfection, cells were incubated with the indicated antibodies (VL3VHK20TFT Fab or 6A11 monoclonal antibody (mAh)) at concentrations predetermined using an independent immunofluorescence titration curve on wild type protein. The antibodies were detected using an Alexa Fluor 488-conjugated secondary antibody, and mean cellular fluorescence was determined using Intellicyt® iQue flow cytometry platform. […] This counterscreen strategy facilitates the exclusion of mutants that are locally misfolded or that have an expression defect.
(§4) The binding of VL3VHK20TFT Fab and 6A11 mAh to each mutant clone in an alanine scanning library of ITGA7 mutants was determined, in duplicate, by high-throughput flow cytometry. For each point, background fluorescence was subtracted from the raw data, which were then normalized to antibody (Ab) reactivity with wild-type (WT) target protein. For each mutant clone, the mean binding value was plotted as a function of expression (represented by control reactivity). To identify preliminary primary critical clones (red circles), a threshold (dashed lines) of >70% WT binding to control Ab and <20% WT binding to test Abs was applied.

[8] = target: T5, ITGA7 mutant W979A on HEK-293T cells (human, UniProt P05556 21-798); assay: as above
T5 construct: whole, on cells; Clone of the alanine-scan library of ITGA7
Protocol: as §3, §4

[9] = target: T6, ITGA7 mutant M976A on HEK-293T cells (human, UniProt P05556 21-798); assay: as above
T6 construct: whole, on cells; Clone of the alanine-scan library of ITGA7
Protocol: as §3, §4

[10] = target: T7, ITGA7 mutant W978A on HEK-293T cells (human, UniProt P05556 21-798); assay: as above
T7 construct: whole, on cells; Clone of the alanine-scan library of ITGA7
Protocol: as §3, §4

[11] = target: T3, human integrin alpha-7 (ITGA7) …; assay: high-throughput flow cytometry on HEK-293T cells with ITGA7 + ITGB1 against vector alone, 2.0 µg/ml
From the text: as §1, §2

human α5β1 integrin = human α5β1 integrin (human, UniProt P08648 42-995; P05556 21-728, limits assumed); assay: dose titration on integrins (FIG. 11B)
human α6β1 integrin = human α6β1 integrin (human, UniProt P23229 24-1011; P05556 21-728, limits assumed); assay: dose titration on integrins (FIG. 11B)
human α6β1 integrin, sequence (P23229 other isoform, or with tags, fused parts or gaps limits assumed, chain 1 of 2): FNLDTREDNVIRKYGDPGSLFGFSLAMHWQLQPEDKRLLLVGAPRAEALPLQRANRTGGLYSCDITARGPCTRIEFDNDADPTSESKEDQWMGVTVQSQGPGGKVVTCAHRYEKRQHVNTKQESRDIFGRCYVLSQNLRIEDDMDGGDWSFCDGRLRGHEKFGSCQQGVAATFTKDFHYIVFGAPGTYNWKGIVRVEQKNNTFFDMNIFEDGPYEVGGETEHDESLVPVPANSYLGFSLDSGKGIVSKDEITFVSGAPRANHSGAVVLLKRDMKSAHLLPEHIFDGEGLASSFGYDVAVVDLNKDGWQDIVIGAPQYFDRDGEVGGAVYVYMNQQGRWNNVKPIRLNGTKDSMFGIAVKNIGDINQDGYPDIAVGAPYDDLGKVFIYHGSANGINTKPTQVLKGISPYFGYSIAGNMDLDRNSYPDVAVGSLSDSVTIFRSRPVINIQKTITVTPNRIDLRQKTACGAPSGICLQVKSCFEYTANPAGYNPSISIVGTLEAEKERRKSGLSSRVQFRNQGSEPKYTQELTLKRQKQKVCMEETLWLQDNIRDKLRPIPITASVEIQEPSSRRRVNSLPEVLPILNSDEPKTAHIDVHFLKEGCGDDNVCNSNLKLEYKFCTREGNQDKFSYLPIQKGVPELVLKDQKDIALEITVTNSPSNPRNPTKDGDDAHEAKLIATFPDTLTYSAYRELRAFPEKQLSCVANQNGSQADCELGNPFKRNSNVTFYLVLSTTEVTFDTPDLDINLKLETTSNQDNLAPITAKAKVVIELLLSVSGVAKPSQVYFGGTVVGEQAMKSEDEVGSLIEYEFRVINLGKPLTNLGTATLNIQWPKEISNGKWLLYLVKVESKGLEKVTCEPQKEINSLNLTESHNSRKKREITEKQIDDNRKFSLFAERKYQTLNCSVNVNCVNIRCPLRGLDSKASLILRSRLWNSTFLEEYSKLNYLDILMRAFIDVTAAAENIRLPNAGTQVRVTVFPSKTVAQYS
human α6β1 integrin, sequence (P05556 21-728 limits assumed, chain 2 of 2): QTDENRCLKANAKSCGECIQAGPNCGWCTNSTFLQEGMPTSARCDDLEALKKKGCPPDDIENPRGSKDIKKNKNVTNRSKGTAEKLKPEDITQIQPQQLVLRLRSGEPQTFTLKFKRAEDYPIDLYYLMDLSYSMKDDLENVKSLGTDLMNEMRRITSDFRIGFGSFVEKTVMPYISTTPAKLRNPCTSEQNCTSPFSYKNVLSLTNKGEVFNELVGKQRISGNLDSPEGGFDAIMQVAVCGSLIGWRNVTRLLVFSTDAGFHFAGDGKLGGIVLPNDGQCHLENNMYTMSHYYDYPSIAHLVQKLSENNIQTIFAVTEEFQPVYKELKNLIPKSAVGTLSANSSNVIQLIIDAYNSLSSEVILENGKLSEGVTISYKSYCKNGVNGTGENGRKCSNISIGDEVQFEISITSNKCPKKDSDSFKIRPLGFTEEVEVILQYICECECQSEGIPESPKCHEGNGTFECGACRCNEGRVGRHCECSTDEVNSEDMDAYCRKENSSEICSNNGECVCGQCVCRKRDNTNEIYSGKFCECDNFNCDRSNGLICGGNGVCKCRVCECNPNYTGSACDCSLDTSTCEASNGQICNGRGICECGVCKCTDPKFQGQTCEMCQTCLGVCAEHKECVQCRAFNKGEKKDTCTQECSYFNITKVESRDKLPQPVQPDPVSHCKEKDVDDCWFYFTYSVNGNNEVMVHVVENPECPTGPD

T1 sequence (Q13683 other isoform, or with tags, fused parts or gaps limits assumed, chain 1 of 2): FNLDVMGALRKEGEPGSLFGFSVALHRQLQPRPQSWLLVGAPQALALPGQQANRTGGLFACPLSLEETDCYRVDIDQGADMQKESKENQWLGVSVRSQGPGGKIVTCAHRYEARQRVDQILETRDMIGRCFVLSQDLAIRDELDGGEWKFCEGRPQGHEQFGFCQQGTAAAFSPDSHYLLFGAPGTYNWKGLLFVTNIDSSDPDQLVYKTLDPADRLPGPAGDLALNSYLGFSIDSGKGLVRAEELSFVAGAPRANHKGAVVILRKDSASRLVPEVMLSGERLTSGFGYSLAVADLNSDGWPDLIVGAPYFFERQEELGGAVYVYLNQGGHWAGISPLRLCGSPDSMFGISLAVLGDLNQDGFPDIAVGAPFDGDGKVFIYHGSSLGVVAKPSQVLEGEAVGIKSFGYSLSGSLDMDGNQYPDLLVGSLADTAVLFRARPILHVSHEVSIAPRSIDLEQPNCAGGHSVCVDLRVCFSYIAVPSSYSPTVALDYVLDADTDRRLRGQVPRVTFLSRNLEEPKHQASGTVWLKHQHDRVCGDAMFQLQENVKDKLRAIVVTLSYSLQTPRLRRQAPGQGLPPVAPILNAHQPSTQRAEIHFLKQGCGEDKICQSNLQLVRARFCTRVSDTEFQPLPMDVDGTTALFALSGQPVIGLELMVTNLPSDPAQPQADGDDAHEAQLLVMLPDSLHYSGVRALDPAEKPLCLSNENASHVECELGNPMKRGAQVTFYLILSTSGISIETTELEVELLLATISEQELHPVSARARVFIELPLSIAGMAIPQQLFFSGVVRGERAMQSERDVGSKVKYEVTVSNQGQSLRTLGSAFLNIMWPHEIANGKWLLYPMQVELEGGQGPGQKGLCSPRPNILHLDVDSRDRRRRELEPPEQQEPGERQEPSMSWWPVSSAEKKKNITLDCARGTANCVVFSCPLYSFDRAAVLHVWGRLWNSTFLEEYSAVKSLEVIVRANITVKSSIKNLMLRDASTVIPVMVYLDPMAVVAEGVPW
T1 sequence (P05556 21-728 limits assumed, chain 2 of 2): as the sequence (P05556 21-728 limits assumed, chain 2 of 2) above

B1: VL3VHK20TFT monoclonal antibody (antibody, human IgG4 S228P, kappa, V domains shown)
VH: QVQLVQSGAEVKKPGASVKVSCKASGYTFTKYWINWVRQAPGQGLEWMGIIYPGSSTSNYNEKFKTRVTMTVDTSTSTAYMELSSLRSEDTAVYYCVKNDNWGQGTLVTVSS
VL: DIQMTQSPSSLSASVGDRVTITCRASESVDNYGISFMNWFQQKPGKAPKLLIYAASDLGSGVPSRFSGSGSGTDFTLTISSLQPEDFATYYCHQSKEVPYTFGQGTKLEIKR
notes: Humanized M36/M38; also called hIgG4-36; hIgG-36
cell index (integrin α7β1 mediated cell adhesion) of DMD myoblast cells on laminin 211 [1]: ~5 fold | fold lower KD than the chimera antibody VLVH (Human Integrin α7β1 [2]): ~3.33 fold | fold lower KD than the chimera antibody VLVH (Mouse Integrin α7β1 [3]): ~11.1 fold | Signal:Background [4]: 18 ratio signal:background | Kd (Human Integrin α7β1 [5]): 0.593 nM | koff (Human Integrin α7β1 [5]): 0.000153 s⁻¹ | kon (Human Integrin α7β1 [5]): 258000 M⁻¹ s⁻¹ | Kd (Mouse Integrin α7β1 [6]): 1.96 nM | koff (Mouse Integrin α7β1 [6]): 0.000469 s⁻¹ | kon (Mouse Integrin α7β1 [6]): 239000 M⁻¹ s⁻¹

B2: VL3VHK20TFT Fab (Fab, V domains shown)
VH: B1 VH
VL: DIQMTQSPSSLSASVGDRVTITCRASESVDNYGISFMNWFQQKPGKAPKLLIYAASDLGSGVPSRFSGSGSGTDFTLTISSLQPEDFATYYCHQSKEVPYTFGQGTKLEIK
notes: Fab of VL3VHK20TFT; also called VL3VHK20TFT Fab HS; Test Fab
Binding Reactivity (% WT) [7]: 27.8 % WT | Binding Reactivity (% WT) [8]: -0.7 % WT | Binding Reactivity (% WT) [9]: 29.5 % WT | Binding Reactivity (% WT) [10]: -0.3 % WT | Signal:Background [11]: 12 ratio signal:background

B3: mouse α7β1 antibody VLVH (Chimera with human IgG4 Fc) (antibody, V domains shown)
VH: QVQLQQPGAELVKPGASVKLSCKASGYNFTKYWINWVKQRPGQGLEWIGIIYPGSSTSNYNEKFKTKATLTVEISSTTAYMQLSSLTSDDSAVYYCVRGDDWGQGTTLTVSS
VL: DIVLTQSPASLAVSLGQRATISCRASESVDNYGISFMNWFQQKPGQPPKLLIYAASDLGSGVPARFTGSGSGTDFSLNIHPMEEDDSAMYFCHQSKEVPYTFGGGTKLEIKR
notes: also called hIgG4-23; murine antibody (VLVH)
Kd (Human Integrin α7β1 [5]): 1.96 nM | koff (Human Integrin α7β1 [5]): 0.000652 s⁻¹ | kon (Human Integrin α7β1 [5]): 333000 M⁻¹ s⁻¹ | Kd (Mouse Integrin α7β1 [6]): 21.8 nM | koff (Mouse Integrin α7β1 [6]): 0.00213 s⁻¹ | kon (Mouse Integrin α7β1 [6]): 97600 M⁻¹ s⁻¹

Next, values leading:

binding result (human α5β1 integrin): no binding | binding result (human α6β1 integrin): no binding
B4: antibody M36 (antibody, V domains shown)
VH: B3 VH
VL: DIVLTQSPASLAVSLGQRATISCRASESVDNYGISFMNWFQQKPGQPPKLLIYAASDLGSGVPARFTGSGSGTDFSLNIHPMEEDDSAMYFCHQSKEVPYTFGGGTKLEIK
notes: Mouse hybridoma monoclonal antibody; also called M36 agonist antibody

binding result (human α5β1 integrin): no binding | binding result (human α6β1 integrin): no binding
B5: antibody M38 (antibody, V domains shown)
VH: B3 VH
VL: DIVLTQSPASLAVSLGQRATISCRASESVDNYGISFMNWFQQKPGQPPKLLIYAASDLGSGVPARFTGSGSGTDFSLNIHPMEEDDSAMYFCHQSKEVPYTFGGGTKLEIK
notes: Mouse hybridoma monoclonal antibody
